# B1: CACGTG probe (26 bp) (dsDNA)
# DNA 1: GAGGGATCGGCACGTGGGATCGGAGG
# DNA 2: CCTCCGATCCCACGTGCCGATCCCTC
# B2: GTGGTG probe (26 bp) (dsDNA)
# DNA 1: GAGGGATCGGGTGGTGGGATCGGAGG
# DNA 2: CCTCCGATCCCACCACCCGATCCCTC
# B3: ATCTAG probe (26 bp) (dsDNA)
# DNA 1: GAGGGATCGGATCTAGGGATCGGAGG
# DNA 2: CCTCCGATCCCTAGATCCGATCCCTC
# How the values were obtained:
# Myc;MaxL [1] = molecular target: T1, Myc;MaxL (Homo sapiens;Homo sapiens, UniProt P01106-1;P61244 1-439;1-160, |); assay: EMSA; 0.01 nM probe; EMSA: 25 mM HEPES pH 7.6, 100 mM KCl, 1 mM DTT, 0.1 mM EDTA, 0.01% Triton, 30 min at room temperature; 6% polyacrylamide gel in 0.5X Tris/glycine; details: protein: recombinant;recombinant, tags: C-terminal His-tag (pET21a);C-terminal His-tag (pET21a), copies: 1;1
# MaxL = MaxL (human? (HeLa cDNA), UniProt P61244 1-160); assay: EMSA; 0.01 nM probe; MaxL homodimer; EMSA: 25 mM HEPES pH 7.6, 100 mM KCl, 1 mM DTT, 0.1 mM EDTA, 0.01% Triton, 30 min at room temperature; 6% polyacrylamide gel in 0.5X Tris/glycine; details: protein: recombinant; tags: C-terminal His-tag (pET21a); chain copies: 2; unlabeled in silver-stained EMSA
# Myc;MaxL [2] = molecular target: T1, Myc;MaxL; assay: EMSA; stoichiometric, 125 nM, silver stain; EMSA: 25 mM HEPES pH 7.6, 100 mM KCl, 1 mM DTT, 0.1 mM EDTA, 0.01% Triton, 30 min at room temperature; 6% polyacrylamide gel in 0.5X Tris/glycine; details: protein: recombinant;recombinant; tags: C-terminal His-tag (pET21a);C-terminal His-tag (pET21a); copies: 1;1; label: unlabeled
# Myc;MaxS = Myc;MaxS (human? (HeLa cDNA);human? (HeLa cDNA), UniProt P01106-1;P61244-2 1-439;1-151, |); assay: as above; details: protein: recombinant;recombinant; tags: C-terminal His-tag (pET21a);C-terminal His-tag (pET21a); copies: 1;1; label: unlabeled
# Chain of Myc;MaxS (P01106 16-454, chain 1 of 2): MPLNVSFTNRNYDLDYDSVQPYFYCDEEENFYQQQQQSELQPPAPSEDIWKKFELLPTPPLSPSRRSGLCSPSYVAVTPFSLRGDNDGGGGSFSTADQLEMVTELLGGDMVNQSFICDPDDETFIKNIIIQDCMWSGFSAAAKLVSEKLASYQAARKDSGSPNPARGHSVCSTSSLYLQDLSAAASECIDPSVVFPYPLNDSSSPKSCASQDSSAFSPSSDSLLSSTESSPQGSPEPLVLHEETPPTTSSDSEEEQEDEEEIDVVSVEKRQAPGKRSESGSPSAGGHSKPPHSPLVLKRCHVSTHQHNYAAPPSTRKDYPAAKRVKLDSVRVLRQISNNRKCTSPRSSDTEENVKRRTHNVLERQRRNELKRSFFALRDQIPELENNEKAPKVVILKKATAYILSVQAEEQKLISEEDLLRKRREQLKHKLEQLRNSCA
# Chain of Myc;MaxS (P61244 other isoform, or with tags, fused parts or gaps |, chain 2 of 2): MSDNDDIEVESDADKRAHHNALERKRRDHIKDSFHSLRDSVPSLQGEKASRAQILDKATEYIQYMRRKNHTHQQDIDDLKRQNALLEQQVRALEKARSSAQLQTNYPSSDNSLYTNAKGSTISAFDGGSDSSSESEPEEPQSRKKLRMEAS
# T1 sequence (P01106 16-454, chain 1 of 2): as the sequence (P01106 16-454, chain 1 of 2) above
# T1 sequence (P61244 whole entry, chain 2 of 2): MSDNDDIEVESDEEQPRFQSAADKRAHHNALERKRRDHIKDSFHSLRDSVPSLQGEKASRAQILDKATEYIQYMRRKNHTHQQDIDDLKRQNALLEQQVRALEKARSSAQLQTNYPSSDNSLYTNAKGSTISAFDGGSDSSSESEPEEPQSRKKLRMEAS
# Chain of MaxL (P61244 whole entry): as the sequence (P61244 whole entry, chain 2 of 2) above
binder,measurement,setting,value
B1,Kd,Myc;MaxL [1]; unlabeled in silver-stained EMSA,0.1 nM
same,Kd,MaxL,0.4 nM
B2,binding result,Myc;MaxL [2],binds
same,binding result,Myc;MaxS,binds
B3,Kd,Myc;MaxL [1]; label: 32P 5' end-labeled on both strands (Kd),20 nM

# Source: article PMC4242493, “Sequence specificity incompletely defines the genome-wide occupancy of Myc”
